Fold signal over L. fermentum BR11 parent cells and A450nm signal per OD600 nm unit of cells (A450nm per OD600 nm unit of cells) data for one substance are collected here from patent publication US20070276124A1.

The target in experiment [1] is His6-Sep fusion protein from construct BspA-6xHis-Sep (Lactobacillus fermentum BR11). The experiment can be described thus: whole cell ELISA for the His6 epitope on L. fermentum cells with BspA-6xHis-Sep against parent BR11 cells.
Experiment [2] shares this target. Kind of experiment: whole cell ELISA for the His6 epitope on L. fermentum cells with BspA-6xHis-Sep; parent BR11 cells gave 0.0168±0.0007.

“anti-His5 monoclonal antibody (Qiagen, Hilden, Germany)”: the fold signal over L. fermentum BR11 parent cells in experiment [1] came out at 1.8 fold. Further, the A450nm signal per OD600 nm unit of cells (A450nm per OD600 nm unit of cells) in experiment [2] was found to be 0.0302.
